Measured values reported in patent US11357847B2, “Modified HSV gD protein and vaccine containing same” (KM Biologics Co., Ltd., priority 2017, dated 2022).
Where a chain is given by its changes, count along the chain named.

Tests used:
[1] = tested on: various anti-gD2 antibodies; assay: Reactivity of gD variants with anti-gD2 antibodies (competitive ELISA); format: binding, human; conditions: for Reactivity with anti-gD2 antibody 1 / Reactivity with anti-gD2 antibody 5 / Reactivity with anti-gD2 antibody 13 / Reactivity with anti-gD2 antibody 72 / Reactivity with anti-gD2 antibody 75 / Reactivity with anti-gD2 antibody 78 / Reactivity with anti-gD2 antibody 82: immobilized gD variant
Excerpt: Each anti-gD2 monoclonal antibody and each gD variant were expressed using an Expi293 expression system.

gD-HVEM interactions = gD-HVEM interactions (Human herpesvirus 2, UniProt P03172, R52Q); conditions: compared to wild-type gD immune serum; FIG. 34
Method: Inhibition of gD-HVEM interactions by modified gD immune serum was also analyzed. Specifically, 100 μL of gD1-305-cys-strep dimer adjusted to a concentration of 5 μg/mL with phosphate buffered saline was immobilized in a 96-well microtiter plate at 4° C. overnight. Subsequently, blocking and washing were performed as in the competitive ELISA method described above, 100 μL of IgG purified from each immune serum was added at any concentration and reacted at room temperature for one hour. Subsequently, 1 μg/mL of HVEM (Recombinant Human HVEM/TNFRSF14 Fc Chimera Protein, R&D SYSTEMS, Inc.) was diluted at any dilution fold with 1% BSA PBS, each added at 100 μL and reacted at room temperature for an additional hour. Each well was washed again with PBS-T, then, HRP-labeled antibody (anti-hFc/HRP/1% BSA PBS) was reacted. Each well was washed with PBS-T, then colored, and after the reaction was stopped with 1N sulfuric acid, absorbance of 450 nm/650 nm was measured.

gD1-315 = gD1-315 (Human herpesvirus 2, UniProt P03172, R52Q); conditions: compared to wild-type gD immune serum; FIG. 33
Method: IgG was purified from serum and analyzed by competitive methods using SPR (Biacore, Inc.) to make antibody amounts uniform.
The anti-gD2 antibody competition test was performed using Biacore 3000 (GE Healthcare), where, in all experiments, HBS-EP buffer (GE Healthcare) was used, the temperature was set to 25° C., and the flow rate was set to 20 μL/min. CMS senor chip (GE Healthcare) was used as the sensor chip, and the experiment was performed based on the recommended protocol. gD1-315-His was immobilized at about 300 RU on the chip surface, and for chip regeneration, glycine-hydrochloride buffer of 0.1 M and pH 2.0 was used and the chip was washed twice at a flow rate of 30 μL/min for 30 seconds. Procedures for competition and calculation of the competition rate were as follows. 10 μg/mL of each anti-gD2 antibody or buffer was applied to the chip under a condition of binding for 1 minute and dissociation for 2.5 minutes. 20 μg/mL of each immune serum purified by IgG was then applied under a condition of binding for 1 minute and dissociation for 5 minutes. After buffer application, the RU detected when immune serum was applied was set to 100%, and the decrease in immune serum response by anti-gD2 antibody application was calculated as the competitive rate.

HVEM = target: T1, HVEM (Homo sapiens, UniProt Q92956); assay: Reactivity of HVEM with gD variants (competitive ELISA); format: binding; conditions: compared to the original gD1-315; FIG. 14
T1 sequence (Q92956 39-202): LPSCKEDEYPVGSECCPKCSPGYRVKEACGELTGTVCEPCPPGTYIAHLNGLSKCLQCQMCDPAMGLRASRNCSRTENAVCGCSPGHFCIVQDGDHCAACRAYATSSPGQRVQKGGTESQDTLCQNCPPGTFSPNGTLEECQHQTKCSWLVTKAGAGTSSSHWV
Method: From the above discussion, it can be strongly inferred that each variant takes the structure in which FR1 is bound to the receptor binding region. The reactivity of HVEM with each variant was then measured by competitive ELISA.
HVEM can bind gD for the first time when FR1 binds to the receptor binding region and takes a characteristic hairpin structure. […] FR3-deficient gD1-275v5-55 promoted FR1 binding and further HVEM binding over other gD1-315-based variants in which FR3 was present.

splenocytes = assay: Cellular immune (T cell immune)-inducing activity, IFN-γ production response of splenocytes; format: in vivo, BALB/c mice; conditions: 3 μg/mouse; compared to the wild-type gD immune group; FIG. 25
Method: Furthermore, for cellular immune (T cell immune) inducing activity, the IFN-γ production response activity (recall activity) of splenocytes (a pool sample of four cases) prepared from mice immunized with gD1-315v3-55 as an example of a modified gD antigen and wild-type gD (gD1-315) (3 μg/mouse of the administration group) was compared and analyzed. Specifically, 5 weeks old BALB/c mice were immunized with 3 μg of antigen subcutaneously in back at 2-week intervals for a total of 3 times, and splenocytes were collected 2 weeks after the final immunization. Anti-IFN-γ was immobilized in a 96-well plate with a PVDF membrane on the bottom surface and cells were seeded at 1×10^6 cells/100 μL/well. Immune antigens were added as stimulants at 10 mM and the cells were cultured at 37° C. and 5% CO2 for 20 hours. The supernatant was removed and the anti-mouse IFNγ-HRP antibody was reacted, then HRP was stained with AEC reagents to count IFNγ-producing cell numbers with an Image Analyzer (CTL).

HSV-2 MS strain = assay: Mouse infection-prevention test of modified gD (genital herpes infection model); format: in vivo, BALB/c mice; design: key to Determination (vs gD1-315) / Determination# (vs gD1-315): ++: minimum effective dose based on the Significant difference test in three-fold common ratio relative to gD1-315(WT) of two or more doses stronger; +: those of one dose stronger; ±: those of an equivalent value
Method: Immunogenicity test of the modified gD antigen was performed using the wild-type gD antigen gD1-315 (WT) as a positive control and saline as a negative control. A predetermined amount of antigen was dissolved in saline for injection (saline) with MPLA (10 μg/mouse) and CpG (1 μg/mouse) and immunized to mice at a volume of 200 μL/mouse. BALB/c mice (5 weeks old, female) were used for the study and immunized subcutaneously in back at 2-week intervals for a total of 3 times (N=4 cases per group). Two weeks after the final immunization (third dose), blood was collected and serum was prepared for each individual. The prepared serum was serially diluted and assessed for neutralizing antibody-inducing activity against HSV-2 (50% plaque number-reducing activity).
An infection-prevention test in the preventive administration of modified gD antigen was performed using a mouse genital herpes infection model. Similar to the mouse immunogenicity test described above, mice were immunized with the number of N=10 cases per group. Depo-Provera was inoculated subcutaneously at 2 mg/mouse 6 days prior to viral inoculation to improve the multiplicity of infection upon viral inoculation 2 weeks after final immunization (third dose). 5×10^5 PFU/20 μL HSV-2 MS strain was inoculated transvaginally under anesthesia and observed for 21 days. Infection prevention ability was evaluated using survival time (survival rate) as index.
The infection model of the mouse genital herpes infection model was used to evaluate infection prevention ability of various modified gD in preventive administration. The number of animal cases in each group was set to n=10, and wild-type gD (gD1-315) was used as a positive control and saline was used as a negative control. The experiments were performed a total of four times (experiments 1-4) and four doses of 0.1 μg/mouse/time, 0.03 μg/mouse/time, 0.01 μg/mouse/time and 0.003 μg/mouse/time were set for all of the positive control, negative control, and subject modified gD antigen. Depo-Provera was inoculated subcutaneously at 2 mg/mouse 6 days prior to viral inoculation to improve the multiplicity of infection upon viral inoculation 2 weeks after final immunization (third dose). 5×10^5 PFU/20 HSV-2 MS strain was inoculated transvaginally under anesthesia and observed for 21 days. Infection prevention ability was evaluated using survival time (survival rate) as index. Mean values of those were plotted in the graph. A Significant difference test for the negative control group was performed by the Kaplan-Meier method, and those with a minimum effective dose based on the Significant difference test in three-fold common ratio relative to wild type gD of two or more doses stronger were determined to be “++”, those of one dose stronger were determined to be “+”, and those of an equivalent value were determined to be “±”.

[2] = Experiment 1, 0.003 μg/head/time
[3] = Experiment 1, 0.01 μg/head/time
[4] = Experiment 1, 0.03 μg/head/time
[5] = Experiment 2, 0.003 μg/head/time
[6] = Experiment 2, 0.01 μg/head/time
[7] = Experiment 2, 0.03 μg/head/time

Sequence of gD1-315 (P03172 26-340 R52Q): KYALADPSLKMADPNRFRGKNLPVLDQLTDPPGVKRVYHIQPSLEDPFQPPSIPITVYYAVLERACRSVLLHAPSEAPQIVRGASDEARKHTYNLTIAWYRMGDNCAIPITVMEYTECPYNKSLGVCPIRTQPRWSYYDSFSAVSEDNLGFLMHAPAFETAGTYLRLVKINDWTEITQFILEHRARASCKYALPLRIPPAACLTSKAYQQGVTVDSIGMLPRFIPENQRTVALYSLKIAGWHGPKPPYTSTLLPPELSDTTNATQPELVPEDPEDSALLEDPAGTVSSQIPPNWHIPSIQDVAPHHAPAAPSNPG
Sequence of gD-HVEM interactions (P03172 26-330 R52Q): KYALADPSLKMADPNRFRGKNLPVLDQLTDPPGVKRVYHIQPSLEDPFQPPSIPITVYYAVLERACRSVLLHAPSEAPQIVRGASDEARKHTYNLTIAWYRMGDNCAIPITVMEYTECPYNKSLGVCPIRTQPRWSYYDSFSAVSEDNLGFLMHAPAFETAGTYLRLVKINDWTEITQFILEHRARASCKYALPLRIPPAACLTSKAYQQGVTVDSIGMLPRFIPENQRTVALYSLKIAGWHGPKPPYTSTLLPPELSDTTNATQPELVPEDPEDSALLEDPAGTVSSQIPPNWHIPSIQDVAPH

B1: gD1-315v5-55: gD1-315 with glycochains at SC-A, SC-F, linked to T cell epitope peptide DP5 (protein)
chain: KYALADPSLKMADPNRFRGKNLPVLDQLTDPPGVKRVYHIQPSLEDPFQNASIPITVYYAVLERACRSVLLHAPSEAPQIVRGASDEARKHTYNLTIAWYRMGDNCAIPITVMEYTECPYNKSLGVCPIRTQPRWSYYDSFSAVSEDNLGFLMHAPAFETAGTYLRLVKINDWTEITQFILEHRANASCKYALPLRIPPAACLTSKAYQQGVTVDSIGMLPRFIPENQRTVALYSLKIAGWHGPKPPYTSTLLPPELSDTTNATQPELVPEDPEDSALLEDPAGTVSSQIPPNWHIPSIQDVAPHHAPAAPSNPGGPGPGIAFWVRRRAQMAPKPLRIAFWVRRRAQMAPKPLRHHHHHH
modifications: left off: small tags and cut ends
Relative reactivity with antibody No. 82 (gD1-315 wild-type set to 1) ([1]; FIG. 13): approximately 12 fold
Reactivity with anti-gD2 antibody 1 [1]: + ((+): 70% or more)
Reactivity with anti-gD2 antibody 5 [1]: − ((−): less than 30%)
Reactivity with anti-gD2 antibody 13 [1]: + ((+): 70% or more)
Reactivity with anti-gD2 antibody 72 [1]: − ((−): less than 30%)
Reactivity with anti-gD2 antibody 75 [1]: − ((−): less than 30%)
Reactivity with anti-gD2 antibody 78 [1]: − ((−): less than 30%)
Reactivity with anti-gD2 antibody 82 [1]: + ((+): 70% or more)
Inhibition of gD-HVEM interaction by immune serum IgG (gD-HVEM interactions): strong inhibitory effects
Percentage of antibodies in immune serum competing with antibody No. 1 (gD1-315): little change
Percentage of antibodies in immune serum competing with antibody No. 72 (gD1-315): tend to decrease
Percentage of antibodies in immune serum competing with antibody No. 82 (gD1-315): increased percentage
Reactivity with HVEM (HVEM): highest reactivity

B2: gD1-315v3-55: gD1-315 with glycochain at SC-F, linked to two DP5 T cell epitope peptides (protein)
chain: B1 chain with N186R
modifications: left off: small tags and cut ends
Reactivity with anti-gD2 antibody 1 [1]: + ((+): 70% or more)
Reactivity with anti-gD2 antibody 5 [1]: − ((−): less than 30%)
Reactivity with anti-gD2 antibody 13 [1]: + ((+): 70% or more)
Reactivity with anti-gD2 antibody 72 [1]: − ((−): less than 30%)
Reactivity with anti-gD2 antibody 75 [1]: − ((−): less than 30%)
Reactivity with anti-gD2 antibody 78 [1]: − ((−): less than 30%)
Reactivity with anti-gD2 antibody 82 [1]: + ((+): 70% or more)
Percentage of antibodies in immune serum competing with antibody No. 1 (gD1-315): little change
Percentage of antibodies in immune serum competing with antibody No. 72 (gD1-315): tend to decrease
Percentage of antibodies in immune serum competing with antibody No. 82 (gD1-315): increased percentage
IFN-γ production response activity (recall activity) of splenocytes (splenocytes): higher response activity
Mean survival time (HSV-2 MS strain; [2]): >16 days
Significant difference test (vs saline) (HSV-2 MS strain; [2]): *** (*** p < 0.001)
Mean survival time (HSV-2 MS strain; [3]): 15 days
Significant difference test (vs saline) (HSV-2 MS strain; [3]): *** (*** p < 0.001)
Mean survival time (HSV-2 MS strain; [4]): >21 days
Significant difference test (vs saline) (HSV-2 MS strain; [4]): *** (*** p < 0.001)
Mean survival time (HSV-2 MS strain; Experiment 1, 0.1 μg/head/time): >21 days
Significant difference test (vs saline) (HSV-2 MS strain; Experiment 1, 0.1 μg/head/time): *** (*** p < 0.001)
Determination (vs gD1-315) (HSV-2 MS strain; Experiment 1, minimum effective dose relative to gD1-315(WT)): ++
Mean survival time (HSV-2 MS strain; [5]): 7 days
Significant difference test (vs saline) (HSV-2 MS strain; [5]): N.S.
Mean survival time (HSV-2 MS strain; [6]): >16 days
Significant difference test (vs saline) (HSV-2 MS strain; [6]): N.S.
Mean survival time (HSV-2 MS strain; [7]): >22 days
Significant difference test (vs saline) (HSV-2 MS strain; [7]): *** (*** p < 0.001)
Mean survival time (HSV-2 MS strain; Experiment 2, 0.1 μg/head/time): >22 days
Significant difference test (vs saline) (HSV-2 MS strain; Experiment 2, 0.1 μg/head/time): *** (*** p < 0.001)
Determination# (vs gD1-315) (HSV-2 MS strain; Experiment 2, minimum effective dose relative to gD1-315(WT)): +
